Source: patent US20040126819A1

Biological target: human wild type c-RET expressed in 3T3 fibroblasts (human) (UniProt P07949)
Assay: cell-based or functional assay

Sequence of ^125I-GDNF (human GDNF from PeproTech EC Ltd. or rat GDNF from C. F. Ibanez) (ligand) (P39905 78-211): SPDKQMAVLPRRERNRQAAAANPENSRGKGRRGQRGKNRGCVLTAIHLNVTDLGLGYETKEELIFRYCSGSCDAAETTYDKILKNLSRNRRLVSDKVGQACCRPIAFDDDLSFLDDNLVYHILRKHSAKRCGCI
Sequence of human wild type c-RET expressed in 3T3 fibroblasts (human) (P07949 29-1114): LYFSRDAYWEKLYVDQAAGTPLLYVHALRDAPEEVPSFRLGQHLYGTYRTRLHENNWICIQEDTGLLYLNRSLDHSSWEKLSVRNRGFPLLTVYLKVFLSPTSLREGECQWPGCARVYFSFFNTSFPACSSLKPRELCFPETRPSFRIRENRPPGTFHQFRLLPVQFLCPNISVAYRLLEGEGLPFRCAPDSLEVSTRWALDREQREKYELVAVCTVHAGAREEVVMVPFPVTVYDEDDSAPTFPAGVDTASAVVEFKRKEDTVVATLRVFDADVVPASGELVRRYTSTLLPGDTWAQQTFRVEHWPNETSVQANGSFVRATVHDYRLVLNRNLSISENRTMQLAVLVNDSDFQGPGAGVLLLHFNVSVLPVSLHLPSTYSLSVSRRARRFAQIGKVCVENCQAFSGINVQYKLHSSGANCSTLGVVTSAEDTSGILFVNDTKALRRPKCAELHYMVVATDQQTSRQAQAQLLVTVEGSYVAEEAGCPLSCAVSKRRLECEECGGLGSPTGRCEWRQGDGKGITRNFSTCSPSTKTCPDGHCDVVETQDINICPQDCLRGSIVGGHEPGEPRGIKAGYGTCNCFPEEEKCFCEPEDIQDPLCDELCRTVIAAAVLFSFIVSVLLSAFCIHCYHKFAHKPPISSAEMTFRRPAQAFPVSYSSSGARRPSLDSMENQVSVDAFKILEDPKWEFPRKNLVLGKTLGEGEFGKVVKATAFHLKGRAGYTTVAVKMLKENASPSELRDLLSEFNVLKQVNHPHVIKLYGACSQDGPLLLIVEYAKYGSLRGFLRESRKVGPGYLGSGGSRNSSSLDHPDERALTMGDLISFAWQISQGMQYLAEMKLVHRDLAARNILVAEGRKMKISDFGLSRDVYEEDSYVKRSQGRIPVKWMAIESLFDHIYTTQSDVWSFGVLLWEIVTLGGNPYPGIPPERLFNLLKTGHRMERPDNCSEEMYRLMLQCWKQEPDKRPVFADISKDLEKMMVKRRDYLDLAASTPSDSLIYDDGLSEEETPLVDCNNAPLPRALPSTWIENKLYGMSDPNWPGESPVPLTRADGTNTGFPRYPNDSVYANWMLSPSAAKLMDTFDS

## ^125I-GDNF (human GDNF from PeproTech EC Ltd. or rat GDNF from C. F. Ibanez) (ligand)
  tyrosine phosphorylation of c-RET in c-ret-3T3 cells, time course at 50 ng/ml GDNF: 5 min
  tyrosine phosphorylation of the 160 kD c-RET isoform in c-ret-3T3 cells, dose-response, 5 min: > 25 ng/mL
